The results in this text go back to patent US20250043020A1.

Experiment [1] addresses human Ankyrin Repeat Domain-Containing Protein 30B (NY-BR-1.1), full-length, on cells (human) (UniProt Q9BXX2). The experiment in a line: flow cytometry on NY-BR-1.1 transfected Bosc23 cells; PE anti-mouse Fcγ subclass I secondary. Background: Flow cytometry measures light scatter and fluorescence of single cells or particles in a stream.
Experiment [2] has as its target human Ankyrin Repeat Domain-Containing Protein 30A (NY-BR-1), full-length, on cells (human) (UniProt Q9BXX3). Nature of the experiment: flow cytometry on NY-BR-1 transfected Bosc23 cells; PE anti-mouse Fcγ subclass I secondary.
Chain of UniProt Q9BXX3 (Q9BXX3 whole entry, the tested form may be a part): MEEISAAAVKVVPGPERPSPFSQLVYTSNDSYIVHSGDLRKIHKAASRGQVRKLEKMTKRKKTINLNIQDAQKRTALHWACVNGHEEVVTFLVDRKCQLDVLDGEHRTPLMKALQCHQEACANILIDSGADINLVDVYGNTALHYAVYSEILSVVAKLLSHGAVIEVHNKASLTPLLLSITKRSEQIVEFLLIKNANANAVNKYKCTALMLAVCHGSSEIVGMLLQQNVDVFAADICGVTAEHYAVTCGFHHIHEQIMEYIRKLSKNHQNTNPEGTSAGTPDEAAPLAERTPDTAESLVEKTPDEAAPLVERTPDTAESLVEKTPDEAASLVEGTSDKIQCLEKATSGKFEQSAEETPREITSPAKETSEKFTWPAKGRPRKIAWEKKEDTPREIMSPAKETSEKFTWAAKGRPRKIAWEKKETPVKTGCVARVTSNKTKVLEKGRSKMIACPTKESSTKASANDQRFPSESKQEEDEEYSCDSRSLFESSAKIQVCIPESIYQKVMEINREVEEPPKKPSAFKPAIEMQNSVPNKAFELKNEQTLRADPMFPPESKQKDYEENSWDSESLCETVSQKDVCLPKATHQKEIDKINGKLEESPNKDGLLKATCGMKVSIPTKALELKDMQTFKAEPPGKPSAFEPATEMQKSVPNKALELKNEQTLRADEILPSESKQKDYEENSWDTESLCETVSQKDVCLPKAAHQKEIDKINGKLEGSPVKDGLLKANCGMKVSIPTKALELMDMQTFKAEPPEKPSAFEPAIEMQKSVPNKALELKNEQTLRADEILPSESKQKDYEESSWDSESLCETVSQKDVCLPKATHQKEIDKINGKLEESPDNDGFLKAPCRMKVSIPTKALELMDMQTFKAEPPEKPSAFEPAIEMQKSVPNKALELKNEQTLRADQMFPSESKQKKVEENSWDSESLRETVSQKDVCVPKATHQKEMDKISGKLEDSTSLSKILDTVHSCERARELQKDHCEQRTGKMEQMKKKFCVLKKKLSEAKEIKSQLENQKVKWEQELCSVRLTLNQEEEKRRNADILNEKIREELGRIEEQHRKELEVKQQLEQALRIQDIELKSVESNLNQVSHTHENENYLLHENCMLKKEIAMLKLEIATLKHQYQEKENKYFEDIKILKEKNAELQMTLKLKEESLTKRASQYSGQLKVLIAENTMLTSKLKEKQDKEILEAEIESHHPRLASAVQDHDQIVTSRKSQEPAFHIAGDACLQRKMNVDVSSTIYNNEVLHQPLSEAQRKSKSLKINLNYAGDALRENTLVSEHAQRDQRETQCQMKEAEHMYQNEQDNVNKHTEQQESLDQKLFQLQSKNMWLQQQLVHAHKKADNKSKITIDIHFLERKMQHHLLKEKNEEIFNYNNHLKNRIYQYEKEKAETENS

Chain of UniProt Q9BXX2 (Q9BXX2 whole entry, the tested form may be a part): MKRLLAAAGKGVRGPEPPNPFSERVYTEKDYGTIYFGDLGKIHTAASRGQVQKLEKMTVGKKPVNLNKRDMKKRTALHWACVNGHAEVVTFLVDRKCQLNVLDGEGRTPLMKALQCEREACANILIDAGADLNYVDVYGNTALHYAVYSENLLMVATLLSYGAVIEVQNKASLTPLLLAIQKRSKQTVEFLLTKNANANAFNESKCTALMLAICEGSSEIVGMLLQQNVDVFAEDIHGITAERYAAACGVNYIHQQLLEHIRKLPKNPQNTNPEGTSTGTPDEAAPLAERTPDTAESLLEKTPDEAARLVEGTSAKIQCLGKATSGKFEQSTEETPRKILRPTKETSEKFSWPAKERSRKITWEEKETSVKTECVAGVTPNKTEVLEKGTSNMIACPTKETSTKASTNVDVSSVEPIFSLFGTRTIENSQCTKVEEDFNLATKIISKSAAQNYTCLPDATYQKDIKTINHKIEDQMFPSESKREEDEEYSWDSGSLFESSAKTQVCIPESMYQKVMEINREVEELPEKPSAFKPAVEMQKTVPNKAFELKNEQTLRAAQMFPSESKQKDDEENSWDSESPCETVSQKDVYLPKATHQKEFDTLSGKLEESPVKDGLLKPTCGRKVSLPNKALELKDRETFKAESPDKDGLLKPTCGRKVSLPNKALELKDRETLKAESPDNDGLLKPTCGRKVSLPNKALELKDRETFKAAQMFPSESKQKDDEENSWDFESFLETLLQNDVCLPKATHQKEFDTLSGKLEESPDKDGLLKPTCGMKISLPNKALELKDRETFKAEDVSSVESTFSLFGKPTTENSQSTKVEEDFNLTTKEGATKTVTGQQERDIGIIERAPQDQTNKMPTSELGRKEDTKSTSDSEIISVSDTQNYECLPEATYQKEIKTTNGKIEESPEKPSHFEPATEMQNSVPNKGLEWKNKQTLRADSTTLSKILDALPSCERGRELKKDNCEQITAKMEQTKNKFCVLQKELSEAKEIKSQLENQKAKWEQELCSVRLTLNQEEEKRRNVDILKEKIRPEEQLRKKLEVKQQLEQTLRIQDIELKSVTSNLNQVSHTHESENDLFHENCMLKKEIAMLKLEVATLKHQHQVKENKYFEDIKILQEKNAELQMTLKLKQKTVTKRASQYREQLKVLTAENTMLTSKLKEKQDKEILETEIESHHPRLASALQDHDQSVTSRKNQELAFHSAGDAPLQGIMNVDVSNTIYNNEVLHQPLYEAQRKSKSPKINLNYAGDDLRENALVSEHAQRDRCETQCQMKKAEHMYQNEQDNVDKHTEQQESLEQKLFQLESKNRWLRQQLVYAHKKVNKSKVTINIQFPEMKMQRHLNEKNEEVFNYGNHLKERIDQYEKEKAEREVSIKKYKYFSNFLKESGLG

On to “isotype control (Example 1, flow cytometry with full-length murine antibodies) (antibody)”, for which the MFI stood at 90 in experiment [1] and 74 in experiment [2].
